Source: publication PMC7895427, “A stapled peptide mimetic of the CtIP tetramerization motif interferes with double-strand break repair and replication fork protection” (Science Advances, 2021)
Residue numbers refer to the chain shown, from its start. Names may count otherwise. Positions of bridges follow the written chain, without caps; N, C: chain ends. Non-standard residues stand in square brackets, D forms with d. *: point of attachment. FITC = O=C1OC2(c3ccc(O)cc3Oc3cc(O)ccc32)c2ccc(NC(=S)*)cc21; R8 = C=CCCCCCC[C@@](C)(N)C(=O)O; S5 = C=CCCC[C@](C)(N)C(=O)O

B1: CtIP-NTD^32–145 (domain or fragment, human, UniProt Q99708 32-145, looked up)
chain: DREVQGLQVKVTKLKQERILDAQRLEEFFTKNQQLREQQKVLHETIKVLEDRLRAGLCDRCAVTEEHMRKKQQEFENIRQQNLKLITELMNERNTLQEENKKLSEQLQQKIEND
notes: also called N-terminal coiled-coil domain; not shown: His6, N-terminal, cleaved; MBP, N-terminal, cleaved
B2: CtIP-NTD^(18–145, L27E) (domain or fragment, human, UniProt Q99708 18-145, looked up)
chain: SDFKDLWTKEKECHDREVQGLQVKVTKLKQERILDAQRLEEFFTKNQQLREQQKVLHETIKVLEDRLRAGLCDRCAVTEEHMRKKQQEFENIRQQNLKLITELMNERNTLQEENKKLSEQLQQKIEND
notes: not shown: His6, N-terminal, cleaved; MBP, N-terminal, cleaved
B3: CtIP-NTD^18–145 (domain or fragment, human, UniProt Q99708 18-145, looked up)
chain: B2 chain with E10L
notes: as for B2
B4: full-length recombinant CtIP wild type (natural protein, human, UniProt Q99708 1-897, looked up)
chain: MNISGSSCGSPNSADTSSDFKDLWTKLKECHDREVQGLQVKVTKLKQERILDAQRLEEFFTKNQQLREQQKVLHETIKVLEDRLRAGLCDRCAVTEEHMRKKQQEFENIRQQNLKLITELMNERNTLQEENKKLSEQLQQKIENDQQHQAAELECEEDVIPDSPITAFSFSGVNRLRRKENPHVRYIEQTHTKLEHSVCANEMRKVSKSSTHPQHNPNENEILVADTYDQSQSPMAKAHGTSSYTPDKSSFNLATVVAETLGLGVQEESETQGPMSPLGDELYHCLEGNHKKQPFEESTRNTEDSLRFSDSTSKTPPQEELPTRVSSPVFGATSSIKSGLDLNTSLSPSLLQPGKKKHLKTLPFSNTCISRLEKTRSKSEDSALFTHHSLGSEVNKIIIQSSNKQILINKNISESLGEQNRTEYGKDSNTDKHLEPLKSLGGRTSKRKKTEEESEHEVSCPQASFDKENAFPFPMDNQFSMNGDCVMDKPLDLSDRFSAIQRQEKSQGSETSKNKFRQVTLYEALKTIPKGFSSSRKASDGNCTLPKDSPGEPCSQECIILQPLNKCSPDNKPSLQIKEENAVFKIPLRPRESLETENVLDDIKSAGSHEPIKIQTRSDHGGCELASVLQLNPCRTGKIKSLQNNQDVSFENIQWSIDPGADLSQYKMDVTVIDTKDGSQSKLGGETVDMDCTLVSETVLLKMKKQEQKGEKSSNEERKMNDSLEDMFDRTTHEEYESCLADSFSQAADEEEELSTATKKLHTHGDKQDKVKQKAFVEPYFKGDERETSLQNFPHIEVVRKKEERRKLLGHTCKECEIYYADMPAEEREKKLASCSRHRFRYIPPNTPENFWEVGFPSTQTCMERGYIKEDLDPCPRPKRRQPYNAIFSPKGKEQKT
notes: human CtIP, full length (amino acids 1 to 897); also called CtIP-wt
B5: full-length recombinant CtIP-L27E (natural protein, human, UniProt Q99708 1-897, looked up)
chain: B4 chain with L27E
notes: human CtIP, full length (amino acids 1 to 897), with L27E; L27E was introduced by site-directed mutagenesis of the 3xFLAG-CtIP-wt expression vector

Tests used:
CtIP-NTD^18–145 = biological target: B3; assay: fluorescence polarisation; FITC-labeled peptide (1 mg/ml stock diluted 1:10,000) mixed with serially diluted CtIP-NTD; 20 mM tris (pH 8.0), 150 mM NaCl; 10 min at RT; nonlinear regression with Hill slope; details: both partners purified
[1] = biological target: the molecule itself; assay: cross-linking; 1 or 2 μg recombinant protein with or without peptide in PBS, 30 min at RT; 100 μM disuccinimidyl suberate, 30 min at RT; SDS-PAGE and staining
[2] = biological target: the molecule itself; assay: cell-based or functional assay
[3] = biological target: the molecule itself; assay: SEC-MALS; full-length CtIP 10 μM with 0, 20 or 250 μM peptide; 1 hour on ice, then 30 min at RT; Superose 6 10/300 in 20 mM tris (pH 8.0), 200 mM NaCl, 0.5 mM TCEP

{FITC}-S[R8]FKDLWT[S5]LKECH-NH2 (staple 2-9) [FITC-labeled SP^18–31 (hydrocarbon-stapled peptide spanning the entire CtIP tetramerization motif)] was tested, and the “fold higher Kd than that of SP^18–28 on the same target” value (CtIP-NTD^18–145) was about 100 fold.

In the case of B1, the “stoichiometry N” value [1] is reported as 2.

B2 was tested, and the “stoichiometry N” value [1] was 2.

B3 was tested, and the “stoichiometry N” value [1] was 4.

With {FITC}-S[R8]FKDLWT[S5]LK-NH2 (staple 2-9) [FITC-labeled SP^18–28 (hydrocarbon-stapled peptide of CtIP residues 18 to 28)] the Kd (CtIP-NTD^18–145) was 209 nM.

In the case of B4, the “HR frequency (percentage of GFP-positive U2OS EGFP-HR reporter cells after I-SceI) with 10 μM SP^18–28 for 24 hours” value [2] is reported as about 3 fold decrease and the “stoichiometry N” value [3] is reported as 4.

B5 was tested, and the “stoichiometry N” value [3] was 2.
